Measured values from PMC3976055 (2014).
One block for each binder: values may come before it.

How the values were obtained:
Rpt5 C-domain [1] = target: T1, Rpt5 C-domain (UniProt P33297 350-434); assay: BLI
T1 chain: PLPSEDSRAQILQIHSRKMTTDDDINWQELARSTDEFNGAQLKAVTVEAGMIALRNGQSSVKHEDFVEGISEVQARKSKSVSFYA

Rpt5 C-domain [2] = target: T1, Rpt5 C-domain; assay: BLI

- Kd (Rpt5 C-domain [1]): 1.4 µM
- koff (Rpt5 C-domain [2]): 0.013 s⁻¹
B1: Nas2 (natural protein)
chain: MEEEELSKLLANVKIDPSLTSRISQIDSFKLSELMVLKTDIETQLEAYFSVLEQQGIGMDSALVTPDGYPRSDVDVLQVTMIRKNVNMLKNDLNHLLQRSHVLLNQHFDNMNVKSNQDARRNNDDQAIQYTIPFAFISEVVPGSPSDKADIKVDDKLISIGNVHAANHSKLQNIQMVVMKNEDRPLPVLLLREGQILKTSLTPSRNWNGRGLLGCRIQEL

- Kd (Rpt5 C-domain [1]): 3.4 µM
- koff (Rpt5 C-domain [2]): 0.26 s⁻¹
B2: Nas2ND (domain or fragment)
chain: NDLNHLLQRSHVLLNQHFDNMNVKSNQDARRNNDDQAIQYTIPFAFISEVVPGSPSDKADIKVDDKLISIGNVHAANHSKLQNIQMVVMKNEDRPLPVLLLREGQILKTSLTPSRNWNGRGLLGCRIQEL

- Kd (Rpt5 C-domain [1]): 8.5 µM
- koff (Rpt5 C-domain [2]): 0.39 s⁻¹
B3: Nas2LND (domain or fragment)
chain: GPLTRRASVGSQAIQYTIPFAFISEVVPGSPSDKADIKVDDKLISIGNVHAANHSKLQNIQMVVMKNEDRPLPVLLLREGQILKTSLTPSRNWNGRGLLGCRIQEL
